Ten variants from IntAct's records for PubMed 23957209 can be followed below.

First the molecules themselves.
B1: NADPH oxidase organizer 1 (Homo sapiens), Q8NFA2-3 (parent)
chain: MAGPRYPVSVQGAALVQIKRLQTFAFSVRWSDGSDTFVRRSWDEFRQLKKTLKETFPVEAGLLRRSDRVLPKLLDAPLLGRVGRTSRGLARLQLLETYSRRLLATAERVARSPTITGFFAPQPLDLEPALPPGSRVILPTPEEQPLSRAAGRLSIHSLEAQSLRCLQPFCTQDTRDRPFQAQAQESLDVLLRHPSGWWLVENEDRQTAWFPAPYLEEAAPGQGREGGPSLGSSGPQFCASRAYESSRADELSVPAGARVRVLETSDRGWWLCRYGDRAGLLPAVLLRPEGLGALLSGTGFRGGDDPAGEARGFPEPSQATAPPPTVPTRPSPGAIQSRCCTVTRRALERRPRRQGRPRGCVDSVPHPTTEQ
partner: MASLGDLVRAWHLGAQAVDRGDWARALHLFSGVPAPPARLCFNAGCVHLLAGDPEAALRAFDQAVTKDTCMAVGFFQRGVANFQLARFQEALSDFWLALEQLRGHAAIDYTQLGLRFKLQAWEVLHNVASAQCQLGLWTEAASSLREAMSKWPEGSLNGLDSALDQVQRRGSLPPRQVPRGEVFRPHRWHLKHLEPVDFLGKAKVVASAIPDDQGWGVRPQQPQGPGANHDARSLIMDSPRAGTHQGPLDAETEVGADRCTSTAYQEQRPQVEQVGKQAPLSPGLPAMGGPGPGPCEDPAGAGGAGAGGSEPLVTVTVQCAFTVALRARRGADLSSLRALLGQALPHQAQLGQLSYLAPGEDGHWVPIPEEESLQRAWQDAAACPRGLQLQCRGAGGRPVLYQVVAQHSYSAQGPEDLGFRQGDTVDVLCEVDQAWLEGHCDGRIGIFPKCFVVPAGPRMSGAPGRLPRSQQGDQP
B2: Cytochrome b-245 light chain (Homo sapiens), P13498 (parent)
chain: MGQIEWAMWANEQALASGLILITGGIVATAGRFTQWYFGAYSIVAGVFVCLLEYPRGKRKKGSTMERWGQKYMTAVVKLFGPFTRNYYVRAVLHLLLSVPAGFLLATILGTACLAIASGIYLLAAVRGEQWTPIEPKPRERPQIGGTIKQPPSNPPPRPPAEARKKPSEEEAAVAAGGPPGGPQVNPIPVTDEVV
partner: B1 chain
B3: NADPH oxidase organizer 1 (Homo sapiens), Q8NFA2-3 (parent)
chain: B1 chain
partner: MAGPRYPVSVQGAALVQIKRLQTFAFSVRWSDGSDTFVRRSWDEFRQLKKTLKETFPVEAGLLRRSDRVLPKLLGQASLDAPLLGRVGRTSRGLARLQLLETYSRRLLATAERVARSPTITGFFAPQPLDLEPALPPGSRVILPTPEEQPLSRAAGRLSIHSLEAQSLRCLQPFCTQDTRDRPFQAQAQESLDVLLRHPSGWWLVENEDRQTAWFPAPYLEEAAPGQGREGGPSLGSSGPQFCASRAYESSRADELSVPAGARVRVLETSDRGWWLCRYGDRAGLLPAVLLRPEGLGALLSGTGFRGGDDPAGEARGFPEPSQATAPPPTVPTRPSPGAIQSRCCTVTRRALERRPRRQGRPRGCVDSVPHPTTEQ
B4: NADPH oxidase activator 1 (Homo sapiens), Q86UR1 (parent)
chain: B1 partner
partner: B1 chain
B5: NADPH oxidase organizer 1 (Homo sapiens), Q8NFA2-3 (parent)
chain: B1 chain
partner: B2 chain

Variants of B1 are the subject of one assay. As to conditions: with noxa1_human NOXA1, Q86UR1.
As for MAGPRYPVSVQGAALVQIKRLQTFAFSVRWSDGSDTFVRRSWDEFRQLKKTLKETFPVEAGLLRRSDRVLPKLLDAPLLGRVGRTSRGLARLQLLETYSRRLLATAERVARSPTITGFFAPQPLDLEPALPPGSRVILPTPEEQPLSRAAGRLSIHSLEAQSLRCLQPFCTQDTRDRPFQAQAQESLDVLLRHPSGWWLVENEDRQTAWFPAPYLEEAAPGQGREGGPSLGSSGPQFCASRAYESSRADELSVPAGARVRVLETSDRGWWLCRYGDRAGLLPAVLLRPEGLGALLSGTGFRGGDDPAGEARGFPEPSQATAPPPTVPTRPSPGAIQSRCCTVARRALERRPRRQGRPRGCVDSVPHPTTEQ [T343A], the “effect of a mutation on the interaction” value is listed as “disrupting interaction”.

The variants in another assay derive from B1. The following applies: with noxa1_human NOXA1, Q86UR1. The source holds these as a separate data set.
For MAGPRYPVSVQGAALVQIKRLQTFAFSVRWSDGSDTFVRRSWDEFRQLKKTLKETFPVEAGLLRRSDRVLPKLLDAPLLGRVGRTSRGLARLQLLETYSRRLLATAERVARSPTITGFFAPQPLDLEPALPPGSRVILPTPEEQPLSRAAGRLSIHSLEAQSLRCLQPFCTQDTRDRPFQAQAQESLDVLLRHPSGWWLVENEDRQTAWFPAPYLEEAAPGQGREGGPSLGSSGPQFCASRAYESSRADELSVPAGARVRVLETSDRGWWLCRYGDRAGLLPAVLLRPEGLGALLSGTGFRGGDDPAGEARGFPEPSQATAPPPTVPTRPSPGAIQSRCCDVTRRALERRPRRQGRPRGCVDSVPHPTTEQ [T341D], the “effect of a mutation on the interaction” value is reported as “increasing interaction”.

The variants in a further assay derive from B1. As to conditions: with noxa1_human NOXA1, Q86UR1. This is another data set of the same source.
In the case of MAGPRYPVSVQGAALVQIKRLQTFAFSVRWSDGSDTFVRRSWDEFRQLKKTLKETFPVEAGLLRRSDRVLPKLLDAPLLGRVGRTSRGLARLQLLETYSRRLLATAERVARSPTITGFFAPQPLDLEPALPPGSRVILPTPEEQPLSRAAGRLSIHSLEAQSLRCLQPFCTQDTRDRPFQAQAQESLDVLLRHPSGWWLVENEDRQTAWFPAPYLEEAAPGQGREGGPSLGSSGPQFCASRAYESSRADELSVPAGARVRVLETSDRGWWLCRYGDRAGLLPAVLLRPEGLGALLSGTGFRGGDDPAGEARGFPEPSQATAPPPTVPTRPSPGAIQSRCCAVTRRALERRPRRQGRPRGCVDSVPHPTTEQ [T341A], the “effect of a mutation on the interaction” value is “disrupting interaction”.

Another assay covers variants of B1. The following applies: with noxa1_human NOXA1, Q86UR1. The source holds these as a separate data set.
MAGPRYPVSVQGAALVQIKRLQTFAFSVRWSDGSDTFVRRSWDEFRQLKKTLKETFPVEAGLLRRSDRVLPKLLDAPLLGRVGRTSRGLARLQLLETYSRRLLATAERVARSPTITGFFAPQPLDLEPALPPGSRVILPTPEEQPLSRAAGRLSIHSLEAQSLRCLQPFCTQDTRDRPFQAQAQESLDVLLRHPSGWWLVENEDRQTAWFPAPYLEEAAPGQGREGGPSLGSSGPQFCASRAYESSRADELSVPAGARVRVLETSDRGWWLCRYGDRAGLLPAVLLRPEGLGALLSGTGFRGGDDPAGEARGFPEPSQATAPPPTVPTRPSPGAIQSRCCEVTRRALERRPRRQGRPRGCVDSVPHPTTEQ [T341E]: the “effect of a mutation on the interaction” value is “increasing interaction”.

In another assay the parent is B2. The following applies: with NOXO1, Q8NFA2-3.
On to MGQIEWAMWANEQALASGLILITGGIVATAGRFTQWYFGAYSIVAGVFVCLLEYPRGKRKKGSTMERWGQKYMTAVVKLFGPFTRNYYVRAVLHLLLSVPAGFLLATILGTACLAIASGIYLLAAVRGEQWTPIEPKPRERPQIGGTIKQPPSNPQPRPPAEARKKPSEEEAAVAAGGPPGGPQVNPIPVTDEVV [P156Q], for which the “effect of a mutation on the interaction” value is on record as “disrupting interaction”.

Another assay covers variants of B3. The following applies: with noxo1_human NOXO1, Q8NFA2.
Turning to MAGPRYPVSVQGAALVQIKRLQTFAFSVRWSDGSDTFVRRSWDEFRQLKKTLKETFPVEAGLLRRSDRVLPKLLDAPLLGRVGRTSRGLARLQLLETYSRRLLATAERVARSPTITGFFAPQPLDLEPALPPGSRVILPTPEEQPLSRAAGRLSIHSLEAQSLRCLQPFCTQDTRDRPFQAQAQESLDVLLRHPSGRWLVENEDRQTAWFPAPYLEEAAPGQGREGGPSLGSSGPQFCASRAYESSRADELSVPAGARVRVLETSDRGWWLCRYGDRAGLLPAVLLRPEGLGALLSGTGFRGGDDPAGEARGFPEPSQATAPPPTVPTRPSPGAIQSRCCTVTRRALERRPRRQGRPRGCVDSVPHPTTEQ [W197R], the “effect of a mutation on the interaction” value is “disrupting interaction”.

The variants in the next assay derive from B4. As to conditions: with NOXO1, Q8NFA2-3.
With MASLGDLVRAWHLGAQAVDRGDWARALHLFSGVPAPPARLCFNAGCVHLLAGDPEAALRAFDQAVTKDTCMAVGFFQRGVANFQLARFQEALSDFWLALEQLRGHAAIDYTQLGLRFKLQAWEVLHNVASAQCQLGLWTEAASSLREAMSKWPEGSLNGLDSALDQVQRRGSLPPRQVPRGEVFRPHRWHLKHLEPVDFLGKAKVVASAIPDDQGWGVRPQQPQGPGANHDARSLIMDSPRAGTHQGPLDAETEVGADRCTSTAYQEQRPQVEQVGKQAPLSPGLPAMGGPGPGPCEDPAGAGGAGAGGSEPLVTVTVQCAFTVALRARRGADLSSLRALLGQALPHQAQLGQLSYLAPGEDGHWVPIPEEESLQRAWQDAAACPRGLQLQCRGAGGRPVLYQVVAQHSYSAQGPEDLGFRQGDTVDVLCEVDQARLEGHCDGRIGIFPKCFVVPAGPRMSGAPGRLPRSQQGDQP [W436R], the “effect of a mutation on the interaction” value is reported as “disrupting interaction”.

Another assay covers variants of B5. As to conditions: with cy24a_human CYBA.
Consider MAGPRYPVSVQGAALVQIKRLQTFAFSVRWSDGSDTFVRRSWDEFRQLKKTLKETFPVEAGLLRRSDRVLPKLLDAPLLGRVGRTSRGLARLQLLETYSRRLLATAERVARSPTITGFFAPQPLDLEPALPPGSRVILPTPEEQPLSRAAGRLSIHSLEAQSLRCLQPFCTQDTRDRPFQAQAQESLDVLLRHPDGWWLVENEDRQTAWFPAPYLEEAAPGQGREGGPSLGSSGPQFCASRAYESSRADELSVPAGARVRVLETSDRGWWLCRYGDRAGLLPAVLLRPEGLGALLSGTGFRGGDDPAGEARGFPEPSQATAPPPTVPTRPSPGAIQSRCCTVTRRALERRPRRQGRPRGCVDSVPHPTTEQ [S195D], for which the “effect of a mutation on the interaction” value is “decreasing interaction”.

Variants of B5 are the subject of another assay. As to conditions: with cy24a_human CYBA, P13498.
With MAGPRYPVSVQGAALVQIKRLQTFAFSVRWSDGSDTFVRRSWDEFRQLKKTLKETFPVEAGLLRRSDRVLPKLLDAPLLGRVGRTSRGLARLQLLETYSRRLLATAERVARSPTITGFFAPQPLDLEPALPPGSRVILPTPEEQPLSRAAGRLSIHSLEAQSLRCLQPFCTQDTRDRPFQAQAQESLDVLLRHPAGWWLVENEDRQTAWFPAPYLEEAAPGQGREGGPSLGSSGPQFCASRAYESSRADELSVPAGARVRVLETSDRGWWLCRYGDRAGLLPAVLLRPEGLGALLSGTGFRGGDDPAGEARGFPEPSQATAPPPTVPTRPSPGAIQSRCCTVTRRALERRPRRQGRPRGCVDSVPHPTTEQ [S195A], the “effect of a mutation on the interaction” value is listed as “decreasing interaction”.

Variants of B5 are the subject of another assay. As to conditions: with cy24a_human CYBA. This is another data set of the same source.
As for MAGPRYPVSVQGAALVQIKRLQTFAFSVRWSDGSDTFVRRSWDEFRQLKKTLKETFPVEAGLLRRSDRVLPKLLDAPLLGRVGRTSRGLARLQLLETYSRRLLATAERVARSPTITGFFAPQPLDLEPALPPGSRVILPTPEEQPLSRAAGRLSIHSLEAQSLRCLQPFCTQDTRDRPFQAQAQESLDVLLRHPEGWWLVENEDRQTAWFPAPYLEEAAPGQGREGGPSLGSSGPQFCASRAYESSRADELSVPAGARVRVLETSDRGWWLCRYGDRAGLLPAVLLRPEGLGALLSGTGFRGGDDPAGEARGFPEPSQATAPPPTVPTRPSPGAIQSRCCTVTRRALERRPRRQGRPRGCVDSVPHPTTEQ [S195E], the “effect of a mutation on the interaction” value is recorded as “decreasing interaction”.
